Target: T1, LolB-Strep (E. coli, UniProt P61320 22-207)
T1 sequence (looked up): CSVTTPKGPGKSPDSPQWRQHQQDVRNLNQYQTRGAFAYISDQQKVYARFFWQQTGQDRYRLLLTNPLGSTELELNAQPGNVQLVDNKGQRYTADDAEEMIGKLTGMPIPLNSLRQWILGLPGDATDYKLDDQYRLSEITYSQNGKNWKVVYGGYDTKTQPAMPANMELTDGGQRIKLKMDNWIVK
Test: pull-down

binding result: binds
B1: wild-type RcsF (natural protein, E. coli, UniProt P69411 16-134, looked up)
chain: CSMLSRSPVEPVQSTAPQPKAEPAKPKAPRATPVRIYTNAEELVGKPFRDLGEVSGDSCQASNQDSPPSIPTARKRMQINASKMKANAVLLHSCEVTSGTPGCYRQAVCIGSALNITAK
modifications: acylated (lipidated) N-terminal cysteine, the first residue of the mature lipoprotein
